Data from article PMC9482650, “Quantitative fragmentomics allow affinity mapping of interactomes” (Nature Communications, 2022).

What was measured:
Assay in all cases: holdup assay
Parameters in all cases: key: below the threshold = too weak to quantify, mostly under pKd 3.1 to 4
LNX2_2, Q8N448 = target: T1, LNX2_2, Q8N448
T1 sequence (Q8N448 334-432, limits assumed, looked up): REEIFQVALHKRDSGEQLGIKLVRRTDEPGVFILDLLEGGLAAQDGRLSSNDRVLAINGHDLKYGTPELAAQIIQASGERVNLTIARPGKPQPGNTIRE

MAGI2_3, Q86UL8 = target: MAGI2_3, Q86UL8
MAGI2_3, Q86UL8, sequence (Q86UL8 600-682): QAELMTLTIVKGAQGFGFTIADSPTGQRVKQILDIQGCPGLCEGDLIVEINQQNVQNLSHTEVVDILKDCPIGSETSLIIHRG

SNTG2, Q9NY99 = target: T2, SNTG2, Q9NY99
T2 sequence (Q9NY99 68-166, limits assumed, looked up): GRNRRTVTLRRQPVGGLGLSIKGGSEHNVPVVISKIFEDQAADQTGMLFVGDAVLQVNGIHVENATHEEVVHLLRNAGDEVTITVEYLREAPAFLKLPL

PDZD7_3, Q9H5P4 = target: T3, PDZD7_3, Q9H5P4
T3 sequence (Q9H5P4 857-944, limits assumed, looked up): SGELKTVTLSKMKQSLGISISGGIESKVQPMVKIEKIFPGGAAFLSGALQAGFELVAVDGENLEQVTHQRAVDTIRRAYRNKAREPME

NHERF4_2, Q86UT5 = target: NHERF4_2, Q86UT5
NHERF4_2, Q86UT5, sequence (Q86UT5 220-308): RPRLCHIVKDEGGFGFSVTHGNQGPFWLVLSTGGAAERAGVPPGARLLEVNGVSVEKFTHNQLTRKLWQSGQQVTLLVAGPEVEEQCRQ

LNX1_3, Q8TBB1 = target: LNX1_3, Q8TBB1
LNX1_3, Q8TBB1, sequence (Q8TBB1 500-596): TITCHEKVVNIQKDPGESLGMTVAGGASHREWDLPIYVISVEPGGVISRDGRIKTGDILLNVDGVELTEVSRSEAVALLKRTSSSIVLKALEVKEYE

APBA1_1, Q02410 = target: T4, APBA1_1, Q02410
T4 sequence (Q02410 651-752, limits assumed, looked up): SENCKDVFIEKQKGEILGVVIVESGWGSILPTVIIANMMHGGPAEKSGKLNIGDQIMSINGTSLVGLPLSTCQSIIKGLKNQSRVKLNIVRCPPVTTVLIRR

CASK, O14936 = target: CASK, O14936
CASK, O14936, sequence (O14936 487-570): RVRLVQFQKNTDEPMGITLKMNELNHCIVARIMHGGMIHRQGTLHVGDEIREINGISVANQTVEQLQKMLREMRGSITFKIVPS

RHPN1, Q8TCX5 = target: T5, RHPN1, Q8TCX5
T5 sequence (Q8TCX5 508-602, limits assumed, looked up): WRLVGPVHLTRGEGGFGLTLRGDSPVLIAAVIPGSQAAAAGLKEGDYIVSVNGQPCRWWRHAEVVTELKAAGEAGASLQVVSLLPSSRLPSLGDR

GRID2IP_1, A4D2P6 = target: GRID2IP_1, A4D2P6
GRID2IP_1, A4D2P6, sequence (A4D2P6 1-87): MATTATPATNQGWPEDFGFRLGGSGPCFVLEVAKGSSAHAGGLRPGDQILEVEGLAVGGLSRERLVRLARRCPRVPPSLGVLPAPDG

MAST1, Q9Y2H9 = target: MAST1, Q9Y2H9
MAST1, Q9Y2H9, sequence (Q9Y2H9 962-1065): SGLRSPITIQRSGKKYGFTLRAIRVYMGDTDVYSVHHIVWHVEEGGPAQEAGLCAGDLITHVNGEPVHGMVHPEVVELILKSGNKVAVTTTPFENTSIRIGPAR

GOPC, Q9HD26 = target: GOPC, Q9HD26
IL16_4, Q14005 = target: IL16_4, Q14005
IL16_4, Q14005, sequence (Q14005 1229-1329): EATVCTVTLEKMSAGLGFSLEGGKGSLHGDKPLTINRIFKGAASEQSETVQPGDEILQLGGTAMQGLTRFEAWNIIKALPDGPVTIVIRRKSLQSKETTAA

PDZRN4_1, Q6ZMN7 = target: PDZRN4_1, Q6ZMN7
PDZRN4_1, Q6ZMN7, sequence (Q6ZMN7 213-318): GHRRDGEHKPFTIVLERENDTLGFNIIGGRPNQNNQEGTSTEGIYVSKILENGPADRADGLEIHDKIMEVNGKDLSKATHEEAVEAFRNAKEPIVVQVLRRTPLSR

GORASP2, Q9H8Y8 = target: GORASP2, Q9H8Y8
MAST2, Q6P0Q8 = target: MAST2, Q6P0Q8
MAST2, Q6P0Q8, sequence (Q6P0Q8 1099-1202): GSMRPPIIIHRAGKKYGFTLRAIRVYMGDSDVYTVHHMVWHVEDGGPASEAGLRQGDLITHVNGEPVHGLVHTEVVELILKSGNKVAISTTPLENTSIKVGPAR

LNX1_2, Q8TBB1 = target: LNX1_2, Q8TBB1
LNX1_2, Q8TBB1, sequence (Q8TBB1 371-470): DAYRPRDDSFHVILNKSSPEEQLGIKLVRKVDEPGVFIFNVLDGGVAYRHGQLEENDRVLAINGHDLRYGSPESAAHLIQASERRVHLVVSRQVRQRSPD

GRID2IP_2, A4D2P6 = target: GRID2IP_2, A4D2P6
GRID2IP_2, A4D2P6, sequence (A4D2P6 272-370): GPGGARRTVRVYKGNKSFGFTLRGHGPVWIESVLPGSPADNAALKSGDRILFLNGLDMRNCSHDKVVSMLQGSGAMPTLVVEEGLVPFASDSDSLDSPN

TJP2_1, Q9UDY2 = target: TJP2_1, Q9UDY2
TJP2_1, Q9UDY2, sequence (Q9UDY2 24-128): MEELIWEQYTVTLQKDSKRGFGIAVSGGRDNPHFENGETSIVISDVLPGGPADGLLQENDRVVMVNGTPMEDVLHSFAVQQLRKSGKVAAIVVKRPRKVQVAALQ

Inadl_9, Q8NI35 = target: Inadl_9, Q8NI35
Inadl_9, Q8NI35, sequence (Q8NI35 1530-1615): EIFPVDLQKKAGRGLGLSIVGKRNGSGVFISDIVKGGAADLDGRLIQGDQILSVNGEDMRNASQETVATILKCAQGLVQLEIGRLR

PDZRN3_1, Q9UPQ7 = target: T6, PDZRN3_1, Q9UPQ7
T6 sequence (Q9UPQ7 244-349, limits assumed, looked up): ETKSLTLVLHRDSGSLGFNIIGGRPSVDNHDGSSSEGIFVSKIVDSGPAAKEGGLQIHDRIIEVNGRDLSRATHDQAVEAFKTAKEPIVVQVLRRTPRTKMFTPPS

MAGI2_4, Q86UL8 = target: MAGI2_4, Q86UL8
MAGI2_4, Q86UL8, sequence (Q86UL8 772-865): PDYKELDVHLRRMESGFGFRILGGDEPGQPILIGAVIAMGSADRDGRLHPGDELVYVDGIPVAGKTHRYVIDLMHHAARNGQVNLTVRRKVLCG

LIMK2, P53671 = target: LIMK2, P53671
LIMK2, P53671, sequence (P53671 143-248): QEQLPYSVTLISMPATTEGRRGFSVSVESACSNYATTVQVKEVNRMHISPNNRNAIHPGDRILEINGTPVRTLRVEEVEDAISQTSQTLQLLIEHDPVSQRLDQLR

HTRA2, O43464 = target: HTRA2, O43464
HTRA2, O43464, sequence (O43464 355-458): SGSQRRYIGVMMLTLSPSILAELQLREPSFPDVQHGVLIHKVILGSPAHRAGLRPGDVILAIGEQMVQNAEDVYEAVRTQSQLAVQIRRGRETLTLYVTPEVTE

DLG3_3, Q92796 = target: T7, DLG3_3, Q92796
T7 sequence (Q92796 374-475, limits assumed, looked up): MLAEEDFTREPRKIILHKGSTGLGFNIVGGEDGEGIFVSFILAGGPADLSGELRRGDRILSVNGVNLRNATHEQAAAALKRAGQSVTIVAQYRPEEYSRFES

Inadl_3, Q8NI35 = target: Inadl_3, Q8NI35
Inadl_3, Q8NI35, sequence (Q8NI35 359-469): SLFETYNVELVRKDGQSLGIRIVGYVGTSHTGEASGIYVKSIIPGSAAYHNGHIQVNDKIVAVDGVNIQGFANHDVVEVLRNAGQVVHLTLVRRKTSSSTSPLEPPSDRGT

RADIL, Q96JH8 = target: T8, RADIL, Q96JH8
T8 sequence (Q96JH8 971-1071, limits assumed, looked up): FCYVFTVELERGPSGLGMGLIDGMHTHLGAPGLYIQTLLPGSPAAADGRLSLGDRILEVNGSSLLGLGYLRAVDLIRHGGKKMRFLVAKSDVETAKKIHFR

TJP1_2, Q07157 = target: TJP1_2, Q07157
TJP1_2, Q07157, sequence (Q07157 181-274): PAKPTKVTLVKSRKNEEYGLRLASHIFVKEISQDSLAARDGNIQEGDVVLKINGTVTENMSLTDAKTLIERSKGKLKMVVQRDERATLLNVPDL

FRMPD3, Q5JV73 = target: FRMPD3, Q5JV73
FRMPD3, Q5JV73, sequence (Q5JV73 12-100): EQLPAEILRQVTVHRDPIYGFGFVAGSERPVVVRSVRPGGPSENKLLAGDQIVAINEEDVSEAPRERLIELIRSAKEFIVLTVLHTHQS

[1] = plain residues with an end cap or a label only (N-terminal biotin on a linker: ttds)
[2] = plain residues with an end cap or a label only (N-terminal biotin on a linker: ado-ado)
[3] = plain residues with an end cap or a label only (N-terminal biotin on a linker: ahx)
[4] = plain residues with an end cap or a label only (N-terminal biotin on a linker: ado-ado, ttds)

SSIDLWETAL [SLC15A5, A6NIM6]
pKd (LNX2_2, Q8N448; [1]): below the threshold
pKd (MAGI2_3, Q86UL8; [1]): below the threshold
pKd (SNTG2, Q9NY99; [1]): 5.2
pKd (PDZD7_3, Q9H5P4; [1]): 5.56
pKd (NHERF4_2, Q86UT5; [1]): below the threshold
pKd (LNX1_3, Q8TBB1; [1]): below the threshold
pKd (APBA1_1, Q02410; [1]): below the threshold
pKd (CASK, O14936; [1]): below the threshold
pKd (RHPN1, Q8TCX5; [1]): 5
pKd (GRID2IP_1, A4D2P6; [1]): below the threshold
pKd (MAST1, Q9Y2H9; [1]): 5.45
pKd (GOPC, Q9HD26; [1]): 4.85
pKd (IL16_4, Q14005; [1]): below the threshold
pKd (PDZRN4_1, Q6ZMN7; [1]): 5.58
pKd (GORASP2, Q9H8Y8; [1]): below the threshold
pKd (MAST2, Q6P0Q8; [1]): 5.44
pKd (LNX1_2, Q8TBB1; [1]): below the threshold
pKd (GRID2IP_2, A4D2P6; [1]): 4.54
pKd (TJP2_1, Q9UDY2; [1]): below the threshold
pKd (Inadl_9, Q8NI35; [1]): 3.7
pKd (PDZRN3_1, Q9UPQ7; [1]): 5.87
pKd (MAGI2_4, Q86UL8; [1]): below the threshold
pKd (LIMK2, P53671; [1]): below the threshold
pKd (HTRA2, O43464; [1]): below the threshold
pKd (DLG3_3, Q92796; [1]): 3.8
pKd (Inadl_3, Q8NI35; [1]): 4.66
pKd (RADIL, Q96JH8; [1]): 3.78
pKd (TJP1_2, Q07157; [1]): below the threshold
pKd (FRMPD3, Q5JV73; [1]): 4.31

ELKAEDEVQI [DCHS2, Q6V1P9]
pKd (LNX2_2, Q8N448; [2]): 3.71
pKd (MAGI2_3, Q86UL8; [2]): below the threshold
pKd (SNTG2, Q9NY99; [2]): below the threshold
pKd (PDZD7_3, Q9H5P4; [2]): below the threshold
pKd (NHERF4_2, Q86UT5; [2]): below the threshold
pKd (LNX1_3, Q8TBB1; [2]): below the threshold
pKd (APBA1_1, Q02410; [2]): below the threshold
pKd (CASK, O14936; [2]): below the threshold
pKd (RHPN1, Q8TCX5; [2]): below the threshold
pKd (GRID2IP_1, A4D2P6; [2]): below the threshold
pKd (MAST1, Q9Y2H9; [2]): below the threshold
pKd (GOPC, Q9HD26; [2]): below the threshold
pKd (IL16_4, Q14005; [2]): 3.6
pKd (PDZRN4_1, Q6ZMN7; [2]): below the threshold
pKd (GORASP2, Q9H8Y8; [2]): below the threshold
pKd (MAST2, Q6P0Q8; [2]): below the threshold
pKd (LNX1_2, Q8TBB1; [2]): below the threshold
pKd (GRID2IP_2, A4D2P6; [2]): below the threshold
pKd (TJP2_1, Q9UDY2; [2]): below the threshold
pKd (Inadl_9, Q8NI35; [2]): below the threshold
pKd (PDZRN3_1, Q9UPQ7; [2]): below the threshold
pKd (MAGI2_4, Q86UL8; [2]): below the threshold
pKd (LIMK2, P53671; [2]): below the threshold
pKd (HTRA2, O43464; [2]): below the threshold
pKd (DLG3_3, Q92796; [2]): below the threshold
pKd (Inadl_3, Q8NI35; [2]): below the threshold
pKd (RADIL, Q96JH8; [2]): below the threshold
pKd (TJP1_2, Q07157; [2]): 3.87
pKd (FRMPD3, Q5JV73; [2]): below the threshold

PPRQRSETQV [HPV82-E6, Q9IR59]
pKd (LNX2_2, Q8N448; [1]): 3.73
pKd (MAGI2_3, Q86UL8; [1]): 3.73
pKd (SNTG2, Q9NY99; [1]): 4
pKd (PDZD7_3, Q9H5P4; [1]): 3.84
pKd (NHERF4_2, Q86UT5; [1]): below the threshold
pKd (LNX1_3, Q8TBB1; [1]): below the threshold
pKd (APBA1_1, Q02410; [1]): below the threshold
pKd (CASK, O14936; [1]): below the threshold
pKd (RHPN1, Q8TCX5; [1]): 3.72
pKd (GRID2IP_1, A4D2P6; [1]): below the threshold
pKd (MAST1, Q9Y2H9; [1]): 4.41
pKd (GOPC, Q9HD26; [1]): 3.63
pKd (IL16_4, Q14005; [1]): below the threshold
pKd (PDZRN4_1, Q6ZMN7; [1]): 3.83
pKd (GORASP2, Q9H8Y8; [1]): 4.12
pKd (MAST2, Q6P0Q8; [1]): 5.18
pKd (LNX1_2, Q8TBB1; [1]): below the threshold
pKd (GRID2IP_2, A4D2P6; [1]): below the threshold
pKd (TJP2_1, Q9UDY2; [1]): 3.44
pKd (Inadl_9, Q8NI35; [1]): below the threshold
pKd (PDZRN3_1, Q9UPQ7; [1]): 3.81
pKd (MAGI2_4, Q86UL8; [1]): 4.72
pKd (LIMK2, P53671; [1]): below the threshold
pKd (HTRA2, O43464; [1]): below the threshold
pKd (DLG3_3, Q92796; [1]): 4.63
pKd (Inadl_3, Q8NI35; [1]): below the threshold
pKd (RADIL, Q96JH8; [1]): 3.34
pKd (TJP1_2, Q07157; [1]): below the threshold
pKd (FRMPD3, Q5JV73; [1]): below the threshold

SKKNELFSNL [NHERF1, O14745]
pKd (LNX2_2, Q8N448; [3]): below the threshold
pKd (MAGI2_3, Q86UL8; [3]): below the threshold
pKd (SNTG2, Q9NY99; [3]): below the threshold
pKd (PDZD7_3, Q9H5P4; [3]): below the threshold
pKd (NHERF4_2, Q86UT5; [3]): below the threshold
pKd (LNX1_3, Q8TBB1; [3]): below the threshold
pKd (APBA1_1, Q02410; [3]): below the threshold
pKd (CASK, O14936; [3]): below the threshold
pKd (RHPN1, Q8TCX5; [3]): 3.76
pKd (GRID2IP_1, A4D2P6; [3]): below the threshold
pKd (MAST1, Q9Y2H9; [3]): 3.6
pKd (GOPC, Q9HD26; [3]): below the threshold
pKd (IL16_4, Q14005; [3]): below the threshold
pKd (PDZRN4_1, Q6ZMN7; [3]): below the threshold
pKd (GORASP2, Q9H8Y8; [3]): below the threshold
pKd (MAST2, Q6P0Q8; [3]): 4.5
pKd (LNX1_2, Q8TBB1; [3]): below the threshold
pKd (GRID2IP_2, A4D2P6; [3]): below the threshold
pKd (TJP2_1, Q9UDY2; [3]): below the threshold
pKd (Inadl_9, Q8NI35; [3]): below the threshold
pKd (PDZRN3_1, Q9UPQ7; [3]): below the threshold
pKd (MAGI2_4, Q86UL8; [3]): below the threshold
pKd (LIMK2, P53671; [3]): below the threshold
pKd (HTRA2, O43464; [3]): below the threshold
pKd (DLG3_3, Q92796; [3]): below the threshold
pKd (Inadl_3, Q8NI35; [3]): below the threshold
pKd (RADIL, Q96JH8; [3]): below the threshold
pKd (TJP1_2, Q07157; [3]): below the threshold
pKd (FRMPD3, Q5JV73; [3]): below the threshold

SNAKAVETDV [KCNA4, P22459]
pKd (LNX2_2, Q8N448; [4]): 3.51
pKd (MAGI2_3, Q86UL8; [4]): 3.54
pKd (SNTG2, Q9NY99; [4]): 4.28
pKd (PDZD7_3, Q9H5P4; [4]): below the threshold
pKd (NHERF4_2, Q86UT5; [4]): below the threshold
pKd (LNX1_3, Q8TBB1; [4]): below the threshold
pKd (APBA1_1, Q02410; [4]): below the threshold
pKd (CASK, O14936; [4]): below the threshold
pKd (RHPN1, Q8TCX5; [4]): 4.15
pKd (GRID2IP_1, A4D2P6; [4]): below the threshold
pKd (MAST1, Q9Y2H9; [4]): 4.32
pKd (GOPC, Q9HD26; [4]): below the threshold
pKd (IL16_4, Q14005; [4]): below the threshold
pKd (PDZRN4_1, Q6ZMN7; [4]): below the threshold
pKd (GORASP2, Q9H8Y8; [4]): below the threshold
pKd (MAST2, Q6P0Q8; [4]): 5.18
pKd (LNX1_2, Q8TBB1; [4]): below the threshold
pKd (GRID2IP_2, A4D2P6; [4]): below the threshold
pKd (TJP2_1, Q9UDY2; [4]): below the threshold
pKd (Inadl_9, Q8NI35; [4]): below the threshold
pKd (PDZRN3_1, Q9UPQ7; [4]): below the threshold
pKd (MAGI2_4, Q86UL8; [4]): 3.79
pKd (LIMK2, P53671; [4]): below the threshold
pKd (HTRA2, O43464; [4]): below the threshold
pKd (DLG3_3, Q92796; [4]): below the threshold
pKd (Inadl_3, Q8NI35; [4]): 3.51
pKd (RADIL, Q96JH8; [4]): below the threshold
pKd (TJP1_2, Q07157; [4]): below the threshold
pKd (FRMPD3, Q5JV73; [4]): below the threshold
